The nanobody polyreactivity screen of Harvey et al. (2022)

Test: yeast display, Sf9 membrane polyspecificity reagent, FACS + sequencing; frameworks hold sequencing errors
Method in brief: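 Polyreactivity labels are assigned by the sorting gate from which each nanobody was recovered. The gates were low and high (top ~1%), set on anti-HA fluorescence for expression and streptavidin fluorescence for reagent binding. Before sorting, galactose-induced (36–48 hours) yeast display cells were stained for 1 hour at 4 °C with 10% biotinylated, detergent-solubilized Sf9 membrane reagent.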

Sequence | polyreactivity (PSR sort gate)
QVQLVESGGGLVQAGGSLRLSCAASGSIFFSNAMGWYRQAPGKERELVASISRDVSTNYADSVKGRFTISRDNAKNTVYLQMTSLKPEDTAVYYCAKRYYRYYYITYNGSHYGYWGQGTQVTVSS | low polyreactivity
QVQLVESGGGLVQAGGSLRLSCAASGSIFYDNAMGWYRQAPGKERELVAAISFRGSSTYYADSVKGRFTISRDNAKNTVYLQMNSLKPEDTAVYYCNTDIYVQYGWGQGTQVTVSS | low polyreactivity
QVQLVESGGGLVQAGGSLRLSCAASGRIFDIYAMGWYRQAPGKERELVAGITWRAGSTYYADSVKGRFTISRDNAKNTVYLQMNSLKPEDTAVYYCAAEVWVTDPYWGDFYYWGHGTQVTVSS | low polyreactivity
QVQLVESGGGLVQAGGSLRLSCAASGSTFVPNDMGWYRQAPGKEMELVAGISSGGGTYADSVKGRFTISRDNAKNTVYLQLNSLKPVDTAVYYCNALHAYYVLTPYDYWGQGTQVTVSS | low polyreactivity
QVQLVESGGGLVQAGGSLRLSCAASGITFYDYAMGWYRQAPGKERELVAAISFSGSRTYYADSVKGRFTISRDIAKNTVYLQMNSLKPEDTAVYYCAASQARNYKIYDYWGQGTQVTVSS | high polyreactivity
QVQLVDSGGGLVQAGGSLRLSCAASGSIFAGYTMGGYRQAPGKEREFVAAISSSGGSTYYADSVKGRFTISRDNAKNTVYLQMNSLKPEDTAVSYCAVRGRISSVSRYGYWGQGTQVTVSS | high polyreactivity
QVQLVESGGGLVQAGCSLRLSCAASGSIFSSYAMGWYRQAPGKERELVAAITGSGGSTDYADSVKGRFTISRDNAKNTVYLQMNSLKPEDTAVYYCAARPFWPGNSYYYRYYYWGQGTQVTVSS | low polyreactivity
QVQLVESGGGLVQAGGSLRLSCAASGLTLDYYAMGWSRQGPGKERELVAVIRGRSGSTYYADSVKGRFTISRDNAKNTDYLQMNSLKPEDTAVYYGARVTTYGDYYWGQGTQVTVSS | high polyreactivity
QDQLVESGGGLVQAGCSLRLSCAASGSTIPYNAMGWYRQAPGKERELVAAITWRAGRTYYADSVKGRFTISRDNAKITVYLQMNSLKAEDTAVYDCAKSYQRGVNHYEYWGQGTQVTVSS | high polyreactivity
QVQLVESGGGLVQAGGSLRLSCAASGSTFDRYAMGWYRQAPGKERELVAAITRGGSTYYADSVKGRFTISRDNAKNTVYLQMNSLKPEDTAVYYCAAAQWWFRVRGARYYYWGQGTQVTVSS | high polyreactivity
QVQLVESGGGLVQAGGSLRLSCAASGRTFKYYAMGWYRQAPGKERELVAAITASDGSTYYADSVKGRFTISRDNAKNTVYLQMNSLKPEDTAVYYCAAVPYRYTYDYWGQGTQVTVSS | high polyreactivity
QVQLVESGGGLVQAGGSLRLSCAASGSTFYSNAMGWYRQAPGKERELVAAISYSGGRTYYADSVKGRFTISRDNAKNTVFLQMNSLKPEDTAVYYCNKAYRRYIWHMDYWGQGTQVTVSS | high polyreactivity
QVQLVESGGGLGQAGGSLRLSCAASGRIFDVYAMGWYRQAPGKERELVATISSSGGATYYADSVKGRFTISRDNAKYTVYLQMNSLKPEDTAVYYCATTYRPTFRRHYNYWGQGTQVTVSS | low polyreactivity
QVQLVESGGGLVQAGGSLRLSCAASGNIFSFNDMGWYRQAPGKERELVAGITTSESTNYADSVKGRFTISRDNAKNTVYLQMNSLKPEDTAVYYCATEILTAARDTVVYQFYLGYYYWGQGTQVTVSS | low polyreactivity
QVQLVESGGGLVQAGGSLRLSCAASGITFWSNAMGWYRQAPGKERELVAAITSSGGSTYYADSVKGRFTISRDNAKNNVYLQMNSLKPEDTAVYYCAAPISRSAGWDSYDYWGQGTQVTVSS | low polyreactivity
QVQLVESGGGLVQAGGSLRLSCAASGFTFGSYAMGWYRQAPGKEREFVAAIRRSGSSTYYADSVKGRFTISRDNAKNTVYLQMTSLKPEDTAVYYCAADVYRRLRRYRYYYWGQGTQVTVSS | low polyreactivity

Sequence | polyreactivity (PSR sort gate)
QVQLVESGGGLVQAGGSLRLSCAASGRTFKGNAMGWYRPAPGKERELVAVITGSGGSTYYADSVKGRFTISRDNAKNTVYLQMHSLKPEDTAVYYCAKQVRSYVRWEYDYWGQGTQGTVSS | low polyreactivity
QVQLVESGGGLVQAGGSLRLSCAASGFTFNSYAMGWYRQAPGKKGSWLAITSDGSTYYADSVKGRFTISRDNAKNTVYLQMNSLKPEDSAVYFCAVRTSWYGAASRYYYWGQGTKVTVSS | high polyreactivity
QVQLVESGGGLVQAGGSLRLSCAASGFTFGENAIGWYRQAPGKERELVAAIRYSGGSTYYADSVKGRFTISRDNAKNTVYLQMNSLKPEDTAVYYCNADTYALGAAVIPGDEYWGQGTQVTVSS | low polyreactivity
QVQLVESGGGLVQAGGSLRLSCAASGSTLPYYAMGWYRQAPGKERELVAAITSSGGDTYYADSVKGRFTISRDNAKNTVYLQMNSLKPEDTAVYYCAKSYSARSTVRKLFYFAYDYWGQGTQVTVSS | low polyreactivity
QVQLVESGGGLVQAGGSLRLSCAASGRTFDVYAMGWYRQPPGKESELVATISYRSARTYSADSVKGRFTISRDNAKNTVYLQMNSLKPEDTAVYYCAARVGARVSQPRRHGRFNYWGQGTQVTVSS | high polyreactivity
QVQLVESGGGLVQAGGSLRLSCAASGSTFKYNAMGWYRQAPGKERELVARISWSGGSTYYADSVKGRFTISRDNAKNSVYLQMNSLKPEDTAVYYCAARSWWRGYSFYYWGQGTQVTVSS | high polyreactivity
QVQLVESGGGLVQAGGSLRLSCAASGFTFVINDMGWYRQAPGTERELVADITSGGDTYYADSVKGRFTISRDNAKNTDYLQLNSLKPEDTAVYYCAADIYPDWIYLLYGYWGQGTQVTVSS | low polyreactivity
QVQQVESWGGLLQAGGSLRLSCAASGSIFTLYAMGWYREAPGKERELVADITWSGGSTYYADSVKGRFTISRDNAKNTVYLEMNSLKPEDTAVYYCAIDYLAGGPWEGHVEREYDYWGQGTQVTVSS | low polyreactivity
QVQLVESGGGLVQAGGSLRLSCAASGSTFSGYAMGWYSQAPGKERELVAAISWSGGRTYYADSVNGRFTISRDNAKNTVYLQMNSLKPEDTAVYYCDAVRKSAYEYWGQGTQVTVSS | high polyreactivity
QVQLVESGGGLVQAGGSLRLSCAASGRTFYGYAMGWYRQAPGKERELVAAISKSGGRTYYADSVKGRFTISRDNAKNTVYLQMNSLKPEDSAVYYCNAPVTGAGTYPPYDSWGQGTQVTVSS | high polyreactivity
QVQLVESGGGLVQAGGSLRLSCADSGSIGYYAMGWYRQAPGKERELVAVISRSGTGTYYADSVKGRFTISRDNANNTVYLQMNSLKPEDTAVYYCNAETYTYRYENDYWGQGTQVTVSS | high polyreactivity
HVQLQESGGGLVQACGSLRLSCAASGTIFKVVDMGLYRQSPAKEREFVATIGEGGNTYYADSVKGRFTISRDNAKNTVYLQMNSLKPEDTAVYFYEVVMGTSYRYTYWGQGTHVTVSS | low polyreactivity
QVQLVESGGGLVQAGGSLRLSCAASGLTFIYYAMGWYRQAPGKERELVAAISTSGASTYYADSVKGRFTISRDNAKNTVYLQMNSLKPEDTAVYYCNAEYFGEYRDYGYWGQGTQVTVSS | low polyreactivity
QVQLVESGGGLVQAGGSLRLSCAASGGIFYVNAMGWYRQAPGKERELVAAITSDGVSTYYADSVKGRFTISRDNAKNTVYLQMNSLKPEDTAVYYCAADNGGAGYYYGYVWYDYWGQGTQVTVSS | low polyreactivity
QVQLVESGGGLVQAGGSLRLSCAASGITFVRYAMGWYRQAPGKERELVAVISRGGITNYADSVKGRFTISRDNAKNTVYLQMNSMKPEDTAVYYCAVRGRSYVRTYDYWGQGTQVTVSS | high polyreactivity
